Source: article PMC7889885

T1: mouse KCC2 (mKCC2a, SLC12A5), twin-Strep tagged, as prepared for cryo-EM (mouse), Q91V14
T1 chain: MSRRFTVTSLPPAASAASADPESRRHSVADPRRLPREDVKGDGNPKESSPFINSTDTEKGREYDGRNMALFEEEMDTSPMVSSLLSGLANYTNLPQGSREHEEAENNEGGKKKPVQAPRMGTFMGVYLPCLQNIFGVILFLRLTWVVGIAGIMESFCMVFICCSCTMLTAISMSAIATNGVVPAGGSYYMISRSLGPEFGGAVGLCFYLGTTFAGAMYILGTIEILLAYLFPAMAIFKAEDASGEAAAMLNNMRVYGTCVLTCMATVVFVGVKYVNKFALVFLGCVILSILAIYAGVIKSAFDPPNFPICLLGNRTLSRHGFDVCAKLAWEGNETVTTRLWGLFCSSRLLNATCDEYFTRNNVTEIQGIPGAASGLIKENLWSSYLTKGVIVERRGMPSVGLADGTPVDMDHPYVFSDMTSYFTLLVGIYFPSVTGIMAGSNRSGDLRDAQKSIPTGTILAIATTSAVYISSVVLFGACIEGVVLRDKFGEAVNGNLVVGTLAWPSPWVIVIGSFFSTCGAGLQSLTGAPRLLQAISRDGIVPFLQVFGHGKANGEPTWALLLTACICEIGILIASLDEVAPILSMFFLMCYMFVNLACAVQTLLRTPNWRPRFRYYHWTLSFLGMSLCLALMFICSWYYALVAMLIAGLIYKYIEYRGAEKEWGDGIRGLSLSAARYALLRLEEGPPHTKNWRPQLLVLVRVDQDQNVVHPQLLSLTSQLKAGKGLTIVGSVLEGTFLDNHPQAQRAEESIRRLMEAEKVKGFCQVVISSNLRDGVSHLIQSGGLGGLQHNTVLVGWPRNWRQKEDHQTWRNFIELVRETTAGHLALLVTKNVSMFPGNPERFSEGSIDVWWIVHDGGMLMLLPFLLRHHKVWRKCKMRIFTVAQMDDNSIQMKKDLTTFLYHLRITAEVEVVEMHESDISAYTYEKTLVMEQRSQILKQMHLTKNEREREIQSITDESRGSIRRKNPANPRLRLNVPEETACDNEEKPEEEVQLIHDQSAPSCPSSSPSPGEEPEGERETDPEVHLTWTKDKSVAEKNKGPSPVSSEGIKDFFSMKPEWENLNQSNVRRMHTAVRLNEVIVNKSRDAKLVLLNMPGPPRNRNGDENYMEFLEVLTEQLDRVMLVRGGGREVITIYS

T2: human NKCC1 (hNKCC1a, SLC12A2), twin-Strep tagged, as prepared for cryo-EM (human), P55011
T2 chain: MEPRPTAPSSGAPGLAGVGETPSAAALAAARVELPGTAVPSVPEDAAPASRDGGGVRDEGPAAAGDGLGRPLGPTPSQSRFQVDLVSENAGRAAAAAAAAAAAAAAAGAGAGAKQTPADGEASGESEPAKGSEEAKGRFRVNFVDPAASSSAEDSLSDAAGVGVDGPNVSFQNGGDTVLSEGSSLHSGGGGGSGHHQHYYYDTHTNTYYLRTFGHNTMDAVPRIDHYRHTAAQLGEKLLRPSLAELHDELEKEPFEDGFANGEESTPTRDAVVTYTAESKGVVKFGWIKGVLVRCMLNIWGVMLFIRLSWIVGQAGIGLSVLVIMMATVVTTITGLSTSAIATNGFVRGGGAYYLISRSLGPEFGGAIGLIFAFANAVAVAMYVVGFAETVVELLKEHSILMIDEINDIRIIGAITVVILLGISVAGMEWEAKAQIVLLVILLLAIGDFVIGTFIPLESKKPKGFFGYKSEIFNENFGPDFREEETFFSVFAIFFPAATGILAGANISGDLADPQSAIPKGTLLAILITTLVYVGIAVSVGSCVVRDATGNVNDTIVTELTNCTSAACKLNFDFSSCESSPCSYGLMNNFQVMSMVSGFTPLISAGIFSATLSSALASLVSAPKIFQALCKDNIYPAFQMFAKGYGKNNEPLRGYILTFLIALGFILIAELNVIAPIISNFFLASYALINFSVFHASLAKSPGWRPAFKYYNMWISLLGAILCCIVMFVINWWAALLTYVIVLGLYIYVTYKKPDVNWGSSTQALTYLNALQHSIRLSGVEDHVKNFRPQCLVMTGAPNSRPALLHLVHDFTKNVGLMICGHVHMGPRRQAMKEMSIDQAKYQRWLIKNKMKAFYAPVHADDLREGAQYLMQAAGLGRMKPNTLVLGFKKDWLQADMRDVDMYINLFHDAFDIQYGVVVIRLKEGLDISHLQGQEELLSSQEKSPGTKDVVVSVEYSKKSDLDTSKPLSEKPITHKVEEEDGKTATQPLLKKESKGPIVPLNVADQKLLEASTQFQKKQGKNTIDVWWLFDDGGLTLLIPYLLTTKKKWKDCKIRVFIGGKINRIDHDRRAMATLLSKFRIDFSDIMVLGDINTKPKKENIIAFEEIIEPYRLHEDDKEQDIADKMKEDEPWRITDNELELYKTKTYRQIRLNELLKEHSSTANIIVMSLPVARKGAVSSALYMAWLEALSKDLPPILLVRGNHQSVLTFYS


Tests used:
[1] = biological target: T1, mouse KCC2 (mKCC2a, SLC12A5), …; test: cryo-EM structure; single-particle cryo-EM of the purified transporter in 20 mM HEPES pH 7.4, 150 mM NaCl, 0.1% digitonin, ~10 mg/ml; C2 symmetry imposed; settings: remark: other sources report otherwise
[2] = biological target: T2, human NKCC1 (hNKCC1a, SLC12A2), …; test: as above; settings: remark: other sources report otherwise

| stoichiometry N [1] | stoichiometry N [2] | Binder |
| --- | --- | --- |
| 2 | – | mouse KCC2 (mKCC2a, SLC12A5), twin-Strep tagged, as prepared for cryo-EM, Q91V14 1-1138 (natural protein, here or on the partner: phosphorylation at T929 and T1029 (confirmed by mass spectrometry); phosphorylation at T929 and T1029 (confirmed by mass spectrometry)) MSRRFTVTSLPPAASAASADPESRRHSVADPRRLPREDVKGDGNPKESSPFINSTDTEKGREYDGRNMALFEEEMDTSPMVSSLLSGLANYTNLPQGSREHEEAENNEGGKKKPVQAPRMGTFMGVYLPCLQNIFGVILFLRLTWVVGIAGIMESFCMVFICCSCTMLTAISMSAIATNGVVPAGGSYYMISRSLGPEFGGAVGLCFYLGTTFAGAMYILGTIEILLAYLFPAMAIFKAEDASGEAAAMLNNMRVYGTCVLTCMATVVFVGVKYVNKFALVFLGCVILSILAIYAGVIKSAFDPPNFPICLLGNRTLSRHGFDVCAKLAWEGNETVTTRLWGLFCSSRLLNATCDEYFTRNNVTEIQGIPGAASGLIKENLWSSYLTKGVIVERRGMPSVGLADGTPVDMDHPYVFSDMTSYFTLLVGIYFPSVTGIMAGSNRSGDLRDAQKSIPTGTILAIATTSAVYISSVVLFGACIEGVVLRDKFGEAVNGNLVVGTLAWPSPWVIVIGSFFSTCGAGLQSLTGAPRLLQAISRDGIVPFLQVFGHGKANGEPTWALLLTACICEIGILIASLDEVAPILSMFFLMCYMFVNLACAVQTLLRTPNWRPRFRYYHWTLSFLGMSLCLALMFICSWYYALVAMLIAGLIYKYIEYRGAEKEWGDGIRGLSLSAARYALLRLEEGPPHTKNWRPQLLVLVRVDQDQNVVHPQLLSLTSQLKAGKGLTIVGSVLEGTFLDNHPQAQRAEESIRRLMEAEKVKGFCQVVISSNLRDGVSHLIQSGGLGGLQHNTVLVGWPRNWRQKEDHQTWRNFIELVRETTAGHLALLVTKNVSMFPGNPERFSEGSIDVWWIVHDGGMLMLLPFLLRHHKVWRKCKMRIFTVAQMDDNSIQMKKDLTTFLYHLRITAEVEVVEMHESDISAYTYEKTLVMEQRSQILKQMHLTKNEREREIQSITDESRGSIRRKNPANPRLRLNVPEETACDNEEKPEEEVQLIHDQSAPSCPSSSPSPGEEPEGERETDPEVHLTWTKDKSVAEKNKGPSPVSSEGIKDFFSMKPEWENLNQSNVRRMHTAVRLNEVIVNKSRDAKLVLLNMPGPPRNRNGDENYMEFLEVLTEQLDRVMLVRGGGREVITIYS |
| – | 2 | human NKCC1 (hNKCC1a, SLC12A2), twin-Strep tagged, as prepared for cryo-EM, P55011 1-1212 (natural protein) MEPRPTAPSSGAPGLAGVGETPSAAALAAARVELPGTAVPSVPEDAAPASRDGGGVRDEGPAAAGDGLGRPLGPTPSQSRFQVDLVSENAGRAAAAAAAAAAAAAAAGAGAGAKQTPADGEASGESEPAKGSEEAKGRFRVNFVDPAASSSAEDSLSDAAGVGVDGPNVSFQNGGDTVLSEGSSLHSGGGGGSGHHQHYYYDTHTNTYYLRTFGHNTMDAVPRIDHYRHTAAQLGEKLLRPSLAELHDELEKEPFEDGFANGEESTPTRDAVVTYTAESKGVVKFGWIKGVLVRCMLNIWGVMLFIRLSWIVGQAGIGLSVLVIMMATVVTTITGLSTSAIATNGFVRGGGAYYLISRSLGPEFGGAIGLIFAFANAVAVAMYVVGFAETVVELLKEHSILMIDEINDIRIIGAITVVILLGISVAGMEWEAKAQIVLLVILLLAIGDFVIGTFIPLESKKPKGFFGYKSEIFNENFGPDFREEETFFSVFAIFFPAATGILAGANISGDLADPQSAIPKGTLLAILITTLVYVGIAVSVGSCVVRDATGNVNDTIVTELTNCTSAACKLNFDFSSCESSPCSYGLMNNFQVMSMVSGFTPLISAGIFSATLSSALASLVSAPKIFQALCKDNIYPAFQMFAKGYGKNNEPLRGYILTFLIALGFILIAELNVIAPIISNFFLASYALINFSVFHASLAKSPGWRPAFKYYNMWISLLGAILCCIVMFVINWWAALLTYVIVLGLYIYVTYKKPDVNWGSSTQALTYLNALQHSIRLSGVEDHVKNFRPQCLVMTGAPNSRPALLHLVHDFTKNVGLMICGHVHMGPRRQAMKEMSIDQAKYQRWLIKNKMKAFYAPVHADDLREGAQYLMQAAGLGRMKPNTLVLGFKKDWLQADMRDVDMYINLFHDAFDIQYGVVVIRLKEGLDISHLQGQEELLSSQEKSPGTKDVVVSVEYSKKSDLDTSKPLSEKPITHKVEEEDGKTATQPLLKKESKGPIVPLNVADQKLLEASTQFQKKQGKNTIDVWWLFDDGGLTLLIPYLLTTKKKWKDCKIRVFIGGKINRIDHDRRAMATLLSKFRIDFSDIMVLGDINTKPKKENIIAFEEIIEPYRLHEDDKEQDIADKMKEDEPWRITDNELELYKTKTYRQIRLNELLKEHSSTANIIVMSLPVARKGAVSSALYMAWLEALSKDLPPILLVRGNHQSVLTFYS |
